Data taken from US20220332839A1, “USE OF PRG4 TO TREAT CANCER” (Lubris LLC, priority 2019, published 2022).

What was measured:
colon cancer = test: Treatment of a human with colon cancer, systemic administration; type: in vivo; conditions: 500 mg rhPRG4 via central venous catheter, once weekly for four weeks
Protocol: An 80 kg human diagnosed with colon cancer is administered recombinant human PRG4 (rhPRG4) by systemic administration via a central venous catheter. A total amount of 500 mg of rhPRG4 in 250 mL of physiological saline at a concentration of 2.0 mg/mL of lubricin is administered to create a blood concentration of approximately 100 μg/mL. The dose is administered once weekly for four weeks.

HLE and HLF cells [1] = test: HCC cell adhesion assay on coated wells; type: cell-based, human; conditions: CD44-shRNA vs control-shRNA; 30 minutes
From the text: (§1) Stable CD44 silencing: HLE and HLF cell lines were transduced with lentiviral particles carrying control non-targeting (V), or specific CD44-targeting shRNA sequences (A to D), and selected with puromycin dihydrochloride (Thermo Fisher Scientific) to obtain stable CD44 silencing, according to manufacturer instructions (OriGene Technologies, Inc., Rockville, Md. 20850, USA). Control-shRNA sequence (V) and CD44-shRNA sequence B were used in all the experiments involving CD44 downregulation.
Adhesion assay: Diluted in 100 μl of serum free DMEM medium (+0.5% BSA), 50,000 cells, were seeded onto uncoated, rhPRG4, or fibronectin (FN)-coated wells of a 96-well plate, and then incubated at 37° C., 5% CO2 for 30 minutes. An equal volume of 4% PFA (pH 7.2 in PBS) was added and the plates were immediately flicked for a few seconds to allow mixing. Thirty minutes later, the medium was removed and the adherent cells were stained with crystal violet for 10 min. After abundant washing with tap water and distilled water the stained cells were allowed to dry out, and then they were solubilized with 100 μl of 1% sodium dodecyl sulphate in water. Absorbance was read at 595 nm and proportionally related to the number of adhered cells.

HLE and HLF cells [2] = test: HCC trans-well migration assay on fibronectin; type: cell-based, human; conditions: soluble rhPRG4 25 μg/ml; 16 hours
From the text: as §1
Trans-well migration assay: The assay was performed as previously described. (Dituri et al., PLoS One 2013. doi:10.1371/journal.pone.0067109). Briefly, 15,000 cells were loaded onto the top chamber of the trans-well, whose membrane was previously coated with fibronectin on the lower surface, and left to migrate for 16 hours in the presence/absence of rhPRG4 (25 μg/ml) diluted in serum-free DMEM medium (+0.5% BSA) in the lower chamber. The cells were then paraformaldehyde-fixed and stained with crystal violet. Five fields/membrane were captured and the number of cells/field was measured.

CD44-IgG1Fc = molecular target: T1, CD44-IgG1Fc (Homo sapiens, UniProt P16070); test: Direct ELISA: binding of coated macromolecules to CD44-IgG1Fc
T1 construct: purchased R & D systems
Protocol: High-binding microtiter plates (Corning, Sigma Aldrich, USA) were coated with rhPRG4 (Mr≅240 KDa), high molecular weight HA (HMW HA; Mr≅1,500 KDa) (R & D System, USA), medium molecular weight HA (MMW HA; Mr≅′300KDa) (R & D System) and vitronectin KDa) (Sigma Aldrich) at 400 μg/mL in PBS buffer (100 μL per well) overnight at 4° C. rhPRG4 is a full-length product produced by CHO-M cells (Lubris, Framingham, Mass., USA). Following washing with PBS+0.1% Tween 20, wells were blocked with 2% bovine serum albumin (BSA; 300 μL per well) for at least 2 hours at room temperature. CD44-IgG1Fc (R & D systems) or IgG1Fc (R & D systems), each at 1 μg/mL (100 μl per well), were added to the plate and incubated for 60 min at room temperature. Following washing with PBS+0.1% tween 20, anti-IgG1Fc-HRP (Sigma Aldrich) was added at 1:10,000 dilution (100 μL per well) and incubated for 60 min at room temp. Following washing with PBS+0.1% tween 20, the assay was developed using 1-step Turbo TMB ELISA reagent (ThermoScientific, USA) and absorbance was measured at 450 nm. The data represents an average of 4 independent assays, each with triplicate wells per group.
The concentration-dependent binding of rhPRG4, HMW HA and MMW HA to CD44 was performed by coating microtiter plates with 400, 200, 100, 20, 4, 2 and 0.1 μg/mL of the macromolecules. The assay was performed as described above. The absorbance values in the IgG1Fc wells were subtracted from the absorbance values in the CD44 IgG1Fc wells and the corrected CD44 IgG1Fc absorbance values were normalized to those of the 400 μg/mL rhPRG4 group and data was expressed as percentage binding to CD44. The concentration-dependent binding of rhPRG4, HMW HA and MMW HA to recombinant CD44 is depicted in FIG. 1B. […] The data represents an average of 4 independent assays, each with triplicate wells per group.
rhPRG4 was digested using sialidase A (Prozyme, USA), O-glycosidase (New England Biolabs, USA) or a combination of sialidase A and O-glycosidase for 16 hours at 37° C. In the sialidase A digestion, 12 μL of the enzyme (1U/200 μL) was added to rhPRG4 in a total reaction volume of 180 μL and a rhPRG4 final concentration of 300 μg/mL. In the O-glycosidase digestion, 4.8 μL of the enzyme (40million units/mL) was added to rhPRG4 in a total reaction volume of 180 μL and a rhPRG4 final concentration of 300 μg/mL under non-denaturing conditions. In the sialidase-A and O-glycosidase digestion, the enzymes were used in volumes identical to the ones stated above and incubated with rhPRG4 in a total reaction volume and final rhPRG4 concentration as stated above. The effect of sialidase-A and O-glycosidase digestions on rhPRG4 apparent molecular weight was determined by SDS-PAGE using 4-12% Bis-Tris gel (NuPage, life technologies, USA). A total of 20 μL of rhPRG4 or enzyme-digested rhPRG4 was run under reducing conditions ([…] for 60 min) followed by staining using Gelcode Blue Stain (Thermo Scientific, USA). Binding of enzymatically digested rhPRG4 to CD44 was compared to undigested rhPRG4 using the direct ELISA approach described above and using an rhPRG4 coating concentration of 30 μg/mL. Data represents the average of 4 independent experiments, each with triplicate wells per group.

T1 sequence (P16070 with tags, fused parts or gaps limits assumed): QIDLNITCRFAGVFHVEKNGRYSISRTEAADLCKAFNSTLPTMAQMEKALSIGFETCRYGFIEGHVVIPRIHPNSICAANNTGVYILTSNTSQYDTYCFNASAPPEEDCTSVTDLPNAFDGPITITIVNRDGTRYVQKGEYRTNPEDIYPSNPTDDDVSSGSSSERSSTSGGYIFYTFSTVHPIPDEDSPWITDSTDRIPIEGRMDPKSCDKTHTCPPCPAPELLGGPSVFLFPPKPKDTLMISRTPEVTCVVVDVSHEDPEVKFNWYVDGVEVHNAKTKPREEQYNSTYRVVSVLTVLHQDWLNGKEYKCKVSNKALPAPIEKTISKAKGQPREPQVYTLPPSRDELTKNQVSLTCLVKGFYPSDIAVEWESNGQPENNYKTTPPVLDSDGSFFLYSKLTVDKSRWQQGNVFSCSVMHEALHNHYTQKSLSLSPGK

rhPRG4: full-length recombinant human PRG4 (lubricin) glycoprotein produced by CHO-M cells; residues 25-1404 of SEQ ID NO:1
tumor size by CT scan after four weeks (colon cancer): decreased in size | cell adhesion to lubricin-coated wells (HLE and HLF cells [1]): impaired upon silencing of CD44 expression | migration of cells on fibronectin (HLE and HLF cells [2]): impairs the migration | concentration-dependent binding to CD44, affinity (CD44-IgG1Fc): comparable affinity to HMW HA | percentage CD44 binding between rhPRG4, HMW HA and MMW HA-coated wells (CD44-IgG1Fc; 0.1 μg/mL coating): no significant differences | percentage recombinant CD44 binding compared to MMW HA coated wells (CD44-IgG1Fc; 200 μg/mL coating, p<0.001): significantly higher | percentage recombinant CD44 binding compared to HMW HA or MMW HA-coated wells (CD44-IgG1Fc; 400, 100, 20, 4 and 2 μg/mL coating, p<0.001): significantly higher | 450 nm absorbance in the CD44-IgG1Fc group vs the IgG1Fc group (CD44-IgG1Fc; wells coated at 400 μg/mL, CD44-IgG1Fc or IgG1Fc at 1 μg/mL): significantly higher
